In patent US20210206875A1, “ERBB-2 TARGETING AGENT AND A BISPECIFIC ANTIBODY WITH ANTIGEN-BINDING SITES THAT BIND AN EPITOPE ON AN EXTRACELLULAR PART OF ERB-2 AND ERBB-3, FOR TREATMENT OF AN INDIVIDUAL WITH AN ERBB-2, ERBB-2/ERBB-3 POSITIVE TUMOUR” (Merus N.V., priority 2017, published 2021):

Target: human ErbB-3 (HER3), on cells (human) (UniProt P21860)
Experiment: cell-based or functional assay

B1: #Ab6 (antibody, from another filing, IgG1, V domains shown)
VH: EVQLLESGGGLVQPGGSLRLSCAASGFTFSHYVMAWVRQAPGKGLEWVSSISSSGGWTLYADSVKGRFTISRDNSKNTLYLQMNSLRAEDTAVYYCTRGLKMATIFDYWGQGTLVTVSS
VL: QSALTQPASVSGSPGQSITISCTGTSSDVGSYNVVSWYQQHPGKAPKLIIYEVSQRPSGVSNRFSGSKSGNTASLTISGLQTEDEADYYCCSYAGSSIFVIFGGGTKVTVL
Q: Which BxPC3 % Inhibition does the source give for B1 here?
A: -7%

Q: What about the MCF-7 IC50 (pM), HRG dependent proliferation of the same binder?
A: 504 pM
